K (app,fr) (apparent rate of polymerization) data for one substance are collected here from paper PMC3691886.

Experiment [1] concerns the target α1-antitrypsin reactive loop mutant P14P12 (T345D, A347D) on the C232S background (UniProt P01009). The experiment can be described thus: FRET or BRET; heat-induced polymerization at 55°C; 0.1 mg/ml protein in 10 mM Na2HPO4/NaH2PO4, 0.1 M NaCl, 0.1% PEG8K, pH 7.4; 2-8 μM ATTO-550-Ni-NTA and ATTO-647N-Ni-NTA on the His tag; apparent rate, corrected to zero dye; monomer to polymer.

Experiment [2] shares this target. The experiment can be described thus: FRET or BRET; heat-induced polymerization at 50°C; 0.1 mg/ml protein in 10 mM Na2HPO4/NaH2PO4, 0.1 M NaCl, 0.1% PEG8K, pH 7.4; 2-8 μM ATTO-550-Ni-NTA and ATTO-647N-Ni-NTA on the His tag; apparent rate, corrected to zero dye; monomer to polymer.
The target is the same in experiment [3]. The experiment can be described thus: FRET or BRET; heat-induced polymerization at 60°C; 0.1 mg/ml protein in 10 mM Na2HPO4/NaH2PO4, 0.1 M NaCl, 0.1% PEG8K, pH 7.4; 2-8 μM ATTO-550-Ni-NTA and ATTO-647N-Ni-NTA on the His tag; apparent rate, corrected to zero dye; monomer to polymer.

As to “α1-antitrypsin reactive loop mutant P14P12 (T345D, A347D) on the C232S background (from UniProt P01009 26-418) (natural protein)”, the k (app,fr) (apparent rate of polymerization) in experiment [1] was found to be 0.00043 s⁻¹; in experiment [2], 5.8e-05 s⁻¹; in experiment [3] it was 0.024 s⁻¹.
